Reference: the supplement of paper PMC7877785
± gives the uncertainty stated by the source.

Assay: self-splicing fitness, log relative to wild type (ln ratio); higher = more splicing; Tetrahymena group I intron in knt gene, E. coli kanamycin selection, DiMSum; sequences stand for … in CUCUCU…GGAGGGAAAAGUUAUCAGGCAUGCACCUGGUAGCUAGUCUUUAAACCAAUAGAUUGCAUCGGUUUAAAAGGCAAGACCGUCAAAUUGCGGGAAAGGGGUCAACAGCCGUUCAGUACCAAGUCUCAGGGGAAACUUUGAGAUGGCCUUGCAAAGGGUAUGGUAAUAAGCUGACGGACAUGGUCCUAACCACGCAGCCAAGUCCUAAGUCAACAGAUCUUCUGUUGAUAUGGAUGCAGUUCACAGACUAAAUGUCGGUCGGGGAAGAUGUAUUCUUCUCAUAAGAUAUAGUCGGACCUCUCCUUAAUGGGAGCUAGCGGAUGAAGUGAUGCAACACUGGAGCCGCUGGGAACUAAUUUGUAUGCGAAAGUAUAUUGAUUAGUUUUGGAGUACUCGUGGUCG
Outline: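 Six replicate transformations of E. coli BL21(DE3) with a pET-22b(+) library were grown overnight at 37°C or 30°C. The library randomised all eight P1ex-region intron nucleotides, the intron lying in the knt kanamycin-resistance gene, and plates were LB agar with or without 25 μg/mL kanamycin plus 100 μg/mL carbenicillin, 50 μM IPTG and 0.2% rhamnose. Pooled colonies were amplicon-sequenced on an Illumina HiSeq 2500, and fitness is the DiMSum error-weighted combination of wild-type-normalised replicate fold changes, kanamycin versus none.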

Sequence | self-splicing fitness (ln) (30 °C) | self-splicing fitness (ln) (37 °C)
ACAAAGCAAUAUUACGCCCU | -0.361 ± 0.098 | 0.683 ± 0.14
ACAAAGCAAUAUUACGCGUA | -1.4 ± 0.099 | -0.512 ± 0.097
ACAAAGCAAUAUUACGCUCU | -1.09 ± 0.063 | -0.102 ± 0.095
ACAAAGCAAUAUUACGGCUG | -0.524 ± 0.069 | -0.277 ± 0.088
ACAAAGCAAUAUUACGGCUU | -0.982 ± 0.084 | -0.814 ± 0.12
ACAAAGCAAUAUUACGGUAG | -3.48 ± 0.16 | -3.21 ± 0.24
ACAAAGCAAUAUUACGGUCA | -0.595 ± 0.069 | -0.472 ± 0.07
ACAAAGCAAUAUUACGUAAA | -2.08 ± 0.069 | -0.302 ± 0.092
ACAAAGCAAUAUUACGUAGC | -2.35 ± 0.086 | -2.01 ± 0.12
ACAAAGCAAUAUUACGUCAU | -3.08 ± 0.12 | -2.4 ± 0.14
ACAAAGCAAUAUUACGUCUU | -0.827 ± 0.051 | -0.41 ± 0.064
ACAAAGCAAUAUUACGUGUA | -2.6 ± 0.1 | -1.56 ± 0.084
ACAAAGCAAUAUUACGUUCC | -2.06 ± 0.11 | -1.73 ± 0.15
ACACAGCAAUAUUACGAAUG | -2.63 ± 0.1 | -1.08 ± 0.084
ACACAGCAAUAUUACGACAU | -0.676 ± 0.01 | -0.0836 ± 0.031
ACACAGCAAUAUUACGAGUC | -5.36 ± 0.27 | -3.05 ± 0.19
ACACAGCAAUAUUACGCACU | -0.282 ± 0.045 | 0.182 ± 0.058
ACACAGCAAUAUUACGCAUC | -3.23 ± 0.21 | -0.58 ± 0.094
ACACAGCAAUAUUACGCCCC | -1.66 ± 0.14 | -0.901 ± 0.15
ACACAGCAAUAUUACGCCCG | -0.876 ± 0.092 | -0.533 ± 0.12

Sequence | self-splicing fitness (ln) (30 °C) | self-splicing fitness (ln) (37 °C)
ACACAGCAAUAUUACGCGAC | -2.72 ± 0.098 | -2.15 ± 0.11
ACACAGCAAUAUUACGCGGC | -2.29 ± 0.12 | -2.92 ± 0.16
ACACAGCAAUAUUACGCGGU | -4.42 ± 0.23 | -2.89 ± 0.17
ACACAGCAAUAUUACGCUCG | -0.365 ± 0.064 | 0.194 ± 0.085
ACACAGCAAUAUUACGGAAG | -3.07 ± 0.14 | -1.12 ± 0.11
ACACAGCAAUAUUACGGACG | -0.635 ± 0.057 | 0.0496 ± 0.073
ACACAGCAAUAUUACGGAUA | -2.87 ± 0.15 | -2.54 ± 0.15
ACACAGCAAUAUUACGGCCU | -0.094 ± 0.086 | -0.0787 ± 0.12
ACACAGCAAUAUUACGGGAC | -3.3 ± 0.14 | -2.12 ± 0.14
ACACAGCAAUAUUACGGGGC | -2.8 ± 0.16 | -3.16 ± 0.19
ACACAGCAAUAUUACGGUAA | -3.67 ± 0.21 | -1.18 ± 0.1
ACACAGCAAUAUUACGUCAG | -3.58 ± 0.14 | -1.67 ± 0.12
ACACAGCAAUAUUACGUGCG | -0.45 ± 0.044 | -0.606 ± 0.063
ACACAGCAAUAUUACGUUCC | -2.17 ± 0.088 | -1.29 ± 0.1
ACACAGCAAUAUUACGUUUA | -2.9 ± 0.11 | -1.99 ± 0.088
ACAGAGCAAUAUUACGAAAC | -2.71 ± 0.29 | –
ACAGAGCAAUAUUACGAGCG | -3.08 ± 0.14 | -2.51 ± 0.19
ACAGAGCAAUAUUACGAUAC | -1.87 ± 0.35 | –
ACAGAGCAAUAUUACGAUCA | -3.4 ± 0.28 | –
